Measurements from PMC12380274.

Key:
[1] = molecular target: chicken p32/C1QBP/gC1qR clone M9 (residues 76-278) fused to the GAL4 activation domain (UniProt A0A8V1AMS0); assay: yeast two-hybrid, liquid β-galactosidase (ONPG) assay; conditions: triplicates over three independent experiments; for response: parent: 16.2
[2] = molecular target: full-length pUL47 (RB-1B) with SR motif 3 mutated to AA, fused to the GAL4 DNA-binding domain (Marek's Disease Virus (Gallid alphaherpesvirus 2), strain RB-1B); assay: two-hybrid; SR mutants and Δ71-185 of pUL47 in pGBKT7 against p32(M9); β-galactosidase coloration and liquid β-galactosidase quantification relative to full-length pUL47 (1-808), triplicates over three experiments (Fig 4B, 4C)
[3] = molecular target: pUL47 (RB-1B) domain 71-185 fused to the GAL4 DNA-binding domain (Marek's Disease Virus (Gallid alphaherpesvirus 2), strain RB-1B); assay: as above
[4] = molecular target: full-length pUL47 (RB-1B) with SR motif 4 mutated to AA, fused to the GAL4 DNA-binding domain (Marek's Disease Virus (Gallid alphaherpesvirus 2), strain RB-1B); assay: as above

With “pUL47 (RB-1B) domain 71-185 fused to the GAL4 DNA-binding domain SR5 (Ser-Arg to Ala-Ala); SR6 (Ser-Arg to Ala-Ala)” the response [1] was 10.1 % vs 1-808.

For “pUL47 (RB-1B) domain 71-185 fused to the GAL4 DNA-binding domain SR1 (SR motif 1, Ser-Arg to Ala-Ala)”, the response [1] was 25.4 % vs 1-808.

Substance “pUL47 (RB-1B) domain 71-185 fused to the GAL4 DNA-binding domain SR3 (Ser-Arg to Ala-Ala); SR4 (Ser-Arg to Ala-Ala)” has a response [1] of 3.7 % vs 1-808.

“pUL47 (RB-1B) domain 71-185 fused to the GAL4 DNA-binding domain SR5 (SR motif 5, Ser-Arg to Ala-Ala)” showed a response [1] of 20.4 % vs 1-808.

Work on “chicken p32/C1QBP/gC1qR clone M9 (residues 76-278) fused to the GAL4 activation domain (from UniProt A0A8V1AMS0 76-278) (domain or fragment)” yielded a reduction of β-galactosidase signal against full-length pUL47 [2] of 30%, a β-galactosidase signal, percent of full-length pUL47 [3] of 16% and a reduction of β-galactosidase signal against full-length pUL47 [4] of 30%.

“pUL47 (RB-1B) domain 71-185 fused to the GAL4 DNA-binding domain SR1 (Ser-Arg to Ala-Ala); SR2 (Ser-Arg to Ala-Ala)” was tested, and the response [1] was 24 % vs 1-808.

“pUL47 (RB-1B) domain 71-185 fused to the GAL4 DNA-binding domain SR6 (SR motif 6, Ser-Arg to Ala-Ala)” gave a response [1] of 8.2 % vs 1-808.

“pUL47 (RB-1B) domain 71-185 fused to the GAL4 DNA-binding domain SR2 (SR motif 2, Ser-Arg to Ala-Ala)” gave a response [1] of 13 % vs 1-808.

Work on “pUL47 of Marek's Disease Virus (RB-1B), full length, fused to the GAL4 DNA-binding domain (pGBKT7-UL47) SR3 (Ser-Arg to Ala-Ala); SR4 (Ser-Arg to Ala-Ala)” yielded a percent of parent ([1]; parent: 100) of 71.2 % vs 1-808.
